Laboratory results: patent US20170355757A1 (Regeneron, published 2017)

T1: monkey C5-mmh (monkey, UniProt P01031 19-1676 (human entry), limits assumed)
T1 construct: Recombinant monkey C5 with a C-terminal myc-myc-hexahistidine tag
T1 chain: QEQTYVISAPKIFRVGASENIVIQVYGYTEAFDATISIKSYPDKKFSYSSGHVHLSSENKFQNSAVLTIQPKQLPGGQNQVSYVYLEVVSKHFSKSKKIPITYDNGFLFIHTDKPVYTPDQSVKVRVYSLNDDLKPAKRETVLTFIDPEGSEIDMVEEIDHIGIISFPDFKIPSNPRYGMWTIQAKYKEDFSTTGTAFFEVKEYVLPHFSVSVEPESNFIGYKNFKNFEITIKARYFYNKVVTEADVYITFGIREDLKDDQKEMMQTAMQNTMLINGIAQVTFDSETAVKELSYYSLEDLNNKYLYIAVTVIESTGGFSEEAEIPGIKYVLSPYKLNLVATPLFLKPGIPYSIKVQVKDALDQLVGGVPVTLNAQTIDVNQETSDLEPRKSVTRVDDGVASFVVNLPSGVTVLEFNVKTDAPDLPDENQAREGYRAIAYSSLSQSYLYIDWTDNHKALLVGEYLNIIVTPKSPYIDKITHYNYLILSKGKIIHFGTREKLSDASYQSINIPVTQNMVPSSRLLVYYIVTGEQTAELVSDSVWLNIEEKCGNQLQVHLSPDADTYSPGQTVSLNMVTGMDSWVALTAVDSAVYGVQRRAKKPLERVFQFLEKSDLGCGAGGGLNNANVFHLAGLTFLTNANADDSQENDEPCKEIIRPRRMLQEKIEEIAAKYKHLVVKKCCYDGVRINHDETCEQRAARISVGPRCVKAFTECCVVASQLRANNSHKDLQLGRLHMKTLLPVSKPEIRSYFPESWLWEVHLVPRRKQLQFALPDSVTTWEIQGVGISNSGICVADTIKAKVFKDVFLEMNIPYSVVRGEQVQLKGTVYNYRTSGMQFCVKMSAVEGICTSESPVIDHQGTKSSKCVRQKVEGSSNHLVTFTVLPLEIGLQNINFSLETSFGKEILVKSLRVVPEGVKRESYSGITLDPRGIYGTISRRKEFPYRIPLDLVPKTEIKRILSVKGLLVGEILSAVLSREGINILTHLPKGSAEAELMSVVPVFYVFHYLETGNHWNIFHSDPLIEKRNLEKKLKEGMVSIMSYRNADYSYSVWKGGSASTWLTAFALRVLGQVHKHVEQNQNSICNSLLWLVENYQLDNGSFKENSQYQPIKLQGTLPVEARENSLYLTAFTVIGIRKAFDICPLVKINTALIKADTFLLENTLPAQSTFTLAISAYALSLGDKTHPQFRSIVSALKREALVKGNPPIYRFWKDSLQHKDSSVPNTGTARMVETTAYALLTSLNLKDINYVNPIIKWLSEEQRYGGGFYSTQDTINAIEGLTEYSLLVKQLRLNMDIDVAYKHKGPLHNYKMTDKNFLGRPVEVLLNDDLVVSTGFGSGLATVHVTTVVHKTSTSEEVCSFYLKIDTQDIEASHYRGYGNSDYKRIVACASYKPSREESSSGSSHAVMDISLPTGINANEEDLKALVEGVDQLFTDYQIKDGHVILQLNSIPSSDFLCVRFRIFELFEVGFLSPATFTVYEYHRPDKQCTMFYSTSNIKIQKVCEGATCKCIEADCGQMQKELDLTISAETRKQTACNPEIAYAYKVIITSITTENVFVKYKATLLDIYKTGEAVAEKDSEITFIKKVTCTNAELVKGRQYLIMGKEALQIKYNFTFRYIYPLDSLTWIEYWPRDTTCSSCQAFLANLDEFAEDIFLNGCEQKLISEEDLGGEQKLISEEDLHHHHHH


Experiments:
[1] = molecular target: T1, monkey C5-mmh; assay: SPR, mAb captured via anti-hFc, 37C
Method: Equilibrium dissociation constants (KD values) for C5 binding to purified anti-C5 antibodies were determined using a real-time surface plasmon resonance biosensor assay on a Biacore T200 instrument. The Biacore sensor surface was derivatized by amine coupling with a monoclonal mouse anti-human Fc antibody (GE Healthcare, # BR-1008-39) to capture anti-C5 antibodies expressed with human Fc constant regions. Biacore binding studies were conducted in HBST running buffer (0.01M HEPES pH 7.4, 0.15M NaCl, 3 mM EDTA, 0.05% v/v Surfactant P20).
Human C5 was obtained from a commercial source (EMD). Other C5 reagents were expressed with a C-terminal myc-myc-hexahistidine tag (subsequently referred to as C5-mmh). […] Association of all the C5 reagents to each of the captured monoclonal antibodies was monitored for 3 minutes and their dissociation in HBST running buffer was monitored for 8 minutes. All the binding kinetics experiments were performed at either 25° C. or 37° C. Kinetic association (kₐ) and dissociation (kd) rate constants were determined by fitting the real-time sensorgrams to a 1:1 binding model using Scrubber 2.0c curve fitting software. Binding dissociation equilibrium constants (KD) and dissociative half-lives (t %) were calculated from the kinetic rate constants as: KD (M)=kd/kₐ and t_{1/2} (min)=In2/(60×kd)

[2] = molecular target: T2, human C5 (human, UniProt P01031 19-1676); assay: SPR, mAb captured via anti-hFc, dissociation at pH7.4 vs pH6.0, 25C
T2 construct: Bought human C5 (EMD #204888, said elsewhere to be purified from plasma); also called hC5; complement component 5
Method: Effect of pH on the rate of dissociation of recombinant human C5 bound to purified anti-C5 monoclonal antibodies was determined using a real-time surface plasmon resonance biosensor using a Biacore T200 instrument. The Biacore sensor surface was first derivatized by amine coupling with a monoclonal mouse anti-human Fc antibody (GE, # BR-1008-39) to capture anti-C5 monoclonal antibodies expressed with human IgG4 Fc. All Biacore binding studies were performed using two running buffers PBS-T, pH7.4 (0.01M Na₂HPO₄/NaH₂PO₄, 0.15M NaCl, 0.05% v/v Tween-20, adjusted to pH7.4) and PBS-T, pH6.0 (0.01M Na₂HPO₄/NaH₂PO₄, 0.15M NaCl, 0.05% v/v Tween-20, adjusted to pH6.0). […] Binding dissociative half-lives (t %) were calculated from kd as: […]

Binder | 100 nM monkey C5-mmh Bound (RU) [1] [RU] | Kd [1] [nM] | koff [1] [s⁻¹] | kon [1] [M⁻¹ s⁻¹] | t1/2 [1] [min] | t1/2 Ratio pH7.4/pH6.0 [2]
H4H12166P2 (antibody, human IgG4, V domains shown, Histidine-mutated CDR variant of H4H12166P; human IgG4 Fc with S108P) VH: QVQLQESGPGLVKPSETLSLTCTVSGDSVSSSYWTWIRQPPGKGLEWIGYIYYSGSSNYNPSLKSRATISVDTSKNQFSLKLSSVTAADTAVYYCAREGNVDTTMIFDYWGQGTLVTVSS VL: AIQMTQSPSSLSASVGDRVTITCRASQGIRNDLGWYQQKPGKAPKLLIYAASSLQSGVPSRFAGRGSGTDFTLTISSLQPEDFATYYCHQDFNYPWTFGQGTKVEIK | 83 | 7.56 | 0.00297 | 393000 | 4 | 9.3
H4H12166P6 (antibody, human IgG4, V domains shown, Histidine-mutated CDR variant of H4H12166P; human IgG4 Fc with S108P) VH: QVQLQESGPGLVKPSETLSLTCTVSGDSVSSSYWTWIRQPPGKGLEWIGYIYYSGSSNYNPSLKSRATISVDTSKNQFSLKLSSVTAADTAVYYCAREGNVDHTMIFDYWGQGTLVTVSS VL: AIQMTQSPSSLSASVGDRVTITCRASQGIRNDLGWYQQKPGKAPKLLIYAASSLQSGVPSRFAGRGSGTDFTLTISSLQPEDFATYYCLQDFNYPWTFGQGTKVEIK | 112 | 9.18 | 0.00232 | 253000 | 5 | 7.8
H4H12166P4 (antibody, human IgG4, V domains shown, Histidine-mutated CDR variant of H4H12166P; human IgG4 Fc with S108P) VH: QVQLQESGPGLVKPSETLSLTCTVSGDSVSSSYWTWIRQPPGKGLEWIGYIYYSGSSNYNPSLKSRATISVDTSKNQFSLKLSSVTAADTAVYYCAREGNVDTTMIFDYWGQGTLVTVSS VL: AIQMTQSPSSLSASVGDRVTITCRASQGIRNDLGWYQQKPGKAPKLLIYAASSLQSGVPSRFAGRGSGTDFTLTISSLQPEDFATYYCLQDFNYPWHFGQGTKVEIK | 80 | 8.2 | 0.00183 | 223000 | 6 | 7.8
H4H12166P5 (antibody, human IgG4, V domains shown, Histidine-mutated CDR variant of H4H12166P; human IgG4 Fc with S108P) VH: QVQLQESGPGLVKPSETLSLTCTVSGDSVSSSYWTWIRQPPGKGLEWIGYIYYSGSSNYNPSLKSRATISVDTSKNQFSLKLSSVTAADTAVYYCAREGNVDTTMIHDYWGQGTLVTVSS VL: AIQMTQSPSSLSASVGDRVTITCRASQGIRNDLGWYQQKPGKAPKLLIYAASSLQSGVPSRFAGRGSGTDFTLTISSLQPEDFATYYCLQDFNYPWTFGQGTKVEIK | 70 | 20.9 | 0.00313 | 150000 | 4 | 8.3

The next lines start with the values.

100 nM monkey C5-mmh Bound (RU) [1] [RU] | Kd [1] [nM] | koff [1] [s⁻¹] | kon [1] [M⁻¹ s⁻¹] | t1/2 [1] [min] | t1/2 Ratio pH7.4/pH6.0 [2] | Binder
48 | 19.3 | 0.00241 | 125000 | 5 | 35 | H4H12166P7 (antibody, human IgG4, V domains shown, Histidine-mutated CDR variant of H4H12166P; human IgG4 Fc with S108P) VH: QVQLQESGPGLVKPSETLSLTCTVSGDSVSSSYWTWIRQPPGKGLEWIGYIYYSGSSNYNPSLKSRATISVDTSKNQFSLKLSSVTAADTAVYYCAREHNVDTTMIFDYWGQGTLVTVSS VL: AIQMTQSPSSLSASVGDRVTITCRASQGIRNDLGWYQQKPGKAPKLLIYAASSLQSGVPSRFAGRGSGTDFTLTISSLQPEDFATYYCLQDFNYPWHFGQGTKVEIK
69 | 14.4 | 0.00261 | 181000 | 4 | 31 | H4H12166P9 (antibody, human IgG4, V domains shown, Histidine-mutated CDR variant of H4H12166P; human IgG4 Fc with S108P) VH: QVQLQESGPGLVKPSETLSLTCTVSGDSVSSSYWTWIRQPPGKGLEWIGYIYYSGSSNYNPSLKSRATISVDTSKNQFSLKLSSVTAADTAVYYCAREGNVDHTMIFDYWGQGTLVTVSS VL: AIQMTQSPSSLSASVGDRVTITCRASQGIRNDLGWYQQKPGKAPKLLIYAASSLQSGVPSRFAGRGSGTDFTLTISSLQPEDFATYYCLQDFNYPWHFGQGTKVEIK
53 | 13.3 | 0.00269 | 203000 | 4 | 47 | H4H12166P8 (antibody, human IgG4, V domains shown, Histidine-mutated CDR variant of H4H12166P; human IgG4 Fc with S108P) VH: QVQLQESGPGLVKPSETLSLTCTVSGDSVSSSYWTWIRQPPGKGLEWIGYIYYSGSSNYNPSLKSRATISVDTSKNQFSLKLSSVTAADTAVYYCAREGNVDHTMIFDYWGQGTLVTVSS VL: AIQMTQSPSSLSASVGDRVTITCRASQGIRNDLGWYQQKPGKAPKLLIYAASSLQSGVPSRFAGRGSGTDFTLTISSLQPEDFATYYCHQDFNYPWTFGQGTKVEIK
24 | 42.2 | 0.00279 | 66000 | 4 | 33 | H4H12166P10 (antibody, human IgG4, V domains shown, Histidine-mutated CDR variant of H4H12166P; human IgG4 Fc with S108P) VH: QVQLQESGPGLVKPSETLSLTCTVSGDSVSSSYWTWIRQPPGKGLEWIGYIYYSGSSNYNPSLKSRATISVDTSKNQFSLKLSSVTAADTAVYYCAREGNVDTTMIHDYWGQGTLVTVSS VL: AIQMTQSPSSLSASVGDRVTITCRASQGIRNDLGWYQQKPGKAPKLLIYAASSLQSGVPSRFAGRGSGTDFTLTISSLQPEDFATYYCLQDFNYPWHFGQGTKVEIK
